Measured values taken from PMC5680779.

Target: HIV-1 Integrase (IN) from NL4-3, Flag-tagged (HIV-1 NL4-3)
Assay: AlphaScreen or HTRF; HTRF-based IN-IN multimerization assay with Flag-tagged and His-tagged IN from NL4-3; with the small molecule MUT-A, signal compared to the IN-IN signal without MUT-A

Work on “HIV-1 Integrase (IN) from NL4-3, Flag-tagged (enzyme)” yielded a maximum multimerization signal plateau with MUT-A (percent of the IN-IN signal without MUT-A) of 600%.
